Assay results published in patent publication US20210395318A1 (Molecular Partners, published 2021).

Experiments:
[1] = target: T1, biotinylated mouse CD40 (Acro Biosystem) (mouse, UniProt P27512 24-193, limits assumed, biotinylated (sites not given)); test: SPR (ProteOn XPR36), bio-mCD40 on NLC chip, Protein #5 as analyte
T1 construct: also called Bio-mCD40
T1 sequence (looked up): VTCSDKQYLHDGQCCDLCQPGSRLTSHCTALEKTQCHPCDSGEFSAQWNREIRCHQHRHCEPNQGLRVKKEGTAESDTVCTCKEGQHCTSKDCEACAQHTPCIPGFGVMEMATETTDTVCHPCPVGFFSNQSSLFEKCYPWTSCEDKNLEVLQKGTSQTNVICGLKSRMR
Procedure: (§1) All SPR measurements were performed using a ProteOn XPR36 instrument (BioRad) and a running buffer of PBS pH 7.4 containing 0.005% Tween 20® (PBST). The 1:1 Langmuir model was used for the fitting of SPR traces.
(§2) ProteOn setup for Protein #5 binding to CD40 of different species. CD40 proteins (Acro Biosystem) of different species (human, cynomolgus, mouse) were biotinylated with standard methods known in the art, resulting in bio-hCD40, bio-cCD40 and bio-mCD40 proteins. The bio-hCD40, bio-cCD40 and bio-mCD40 proteins were immobilized on an NLC chip (BioRad) to a level of respectively 300 RU, 250 RU and 300 RU. The interaction of Protein #5 with CD40 was measured by injecting Protein #5 in a serial dilution of 3, 1.5, 0.75, 0.38 and 0.19 nM with an association of 120 s and dissociation of 900 s using a constant flow of 100 μl/min. The measurement was repeated two or three times and the targets were regenerated between the individual measurements using 10 mM glycine pH 2 for 18 s at a flow of 100 μl/min. The signals were double referenced against the running buffer (PBST) treated control lanes.

human FAP (recombinant) = target: T2, human FAP (recombinant) (human, UniProt Q12884 26-760); test: SPR (ProteOn XPR36), FAP immobilized on GLC chip, Protein #5 as analyte, PBST, 1:1 Langmuir
T2 construct: also called hFAP; rhFAP
T2 sequence: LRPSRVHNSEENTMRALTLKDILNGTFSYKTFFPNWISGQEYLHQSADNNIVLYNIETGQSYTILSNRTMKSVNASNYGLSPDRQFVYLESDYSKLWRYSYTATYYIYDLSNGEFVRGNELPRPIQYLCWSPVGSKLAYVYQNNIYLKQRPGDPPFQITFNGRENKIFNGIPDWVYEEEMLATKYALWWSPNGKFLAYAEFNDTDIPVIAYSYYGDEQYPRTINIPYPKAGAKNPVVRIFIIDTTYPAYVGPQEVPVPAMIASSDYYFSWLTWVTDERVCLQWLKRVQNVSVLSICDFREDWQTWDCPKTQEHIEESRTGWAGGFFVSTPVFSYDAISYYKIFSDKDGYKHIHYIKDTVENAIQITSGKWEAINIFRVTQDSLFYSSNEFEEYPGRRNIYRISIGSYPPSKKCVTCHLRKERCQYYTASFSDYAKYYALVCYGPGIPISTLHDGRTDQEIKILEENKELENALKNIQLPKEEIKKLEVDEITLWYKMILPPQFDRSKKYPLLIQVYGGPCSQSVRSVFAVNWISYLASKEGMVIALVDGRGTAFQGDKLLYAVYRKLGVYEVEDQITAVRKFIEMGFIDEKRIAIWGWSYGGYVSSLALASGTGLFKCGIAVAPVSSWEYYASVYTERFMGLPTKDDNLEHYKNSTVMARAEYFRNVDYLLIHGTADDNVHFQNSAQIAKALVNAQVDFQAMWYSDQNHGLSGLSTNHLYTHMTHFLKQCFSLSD
Procedure: as §1
ProteOn setup for Protein #5 binding to FAP of different species. hFAP, cynomolgus FAP (cFAP) and mouse FAP (mFAP) were immobilized on a GLC chip (BioRad) in 10 mM Na Acetate buffer pH5.3 to a level of 1200 RU, 800 RU and 2000 RU, respectively. The interaction of FAP and Protein #5 was measured by applying Protein #5 in a serial dilution of […] and 3.13 nM with an association of 120 s and dissociation of 1800 s using a constant flow of 100 μl/min. The targets were regenerated using 10 mM glycine pH 2 and 124 mM H₃PO₄. The signals were double referenced against the PBST treated control lanes.

[2] = target: T3, biotinylated human CD40 (Acro Biosystem) (human, UniProt P25942 21-193, biotinylated (sites not given)); test: SPR (ProteOn XPR36), biotinylated CD40 on NLC chip, Protein #5 as analyte, PBST, 1:1 Langmuir
T3 construct: Bought protein; also called Bio-hCD40; hCD40
T3 sequence (P25942 21-193 H80K/K81H limits assumed): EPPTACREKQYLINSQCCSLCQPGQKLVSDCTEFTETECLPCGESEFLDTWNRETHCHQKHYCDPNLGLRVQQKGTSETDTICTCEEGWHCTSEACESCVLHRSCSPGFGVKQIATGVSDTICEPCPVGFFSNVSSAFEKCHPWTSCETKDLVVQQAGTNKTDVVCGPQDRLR
Procedure: as §1, §2

[3] = target: T4, biotinylated cynomolgus CD40 (Acro Biosystem) (cynomolgus, UniProt G7PG38 21-193, biotinylated (sites not given)); test: as above
T4 construct: also called Bio-cCD40
Procedure: as §1, §2

mouse serum albumin = target: T5, mouse serum albumin (mouse, UniProt P07724 25-608); test: SPR (ProteOn XPR36), Protein #5 captured on hFAP-coated GLC chip, serum albumin as analyte, PBST; flagged as overestimated, inaccurate fit; MSA as analyte; patent flags the fit as inaccurate (Chi^2/Rmax 13.1 %) and the KD as overestimated due to nonspecific binding of MSA on the chip
T5 construct: also called MSA
Procedure: as §1
ProteOn setup for Protein #5 binding to serum albumin of different species. First, human FAP (hFAP) was coated on a GLC chip (BioRad) to a level of 700 RU before 50 nM Protein #5 was immobilized as analyte for 120 s (dissociation of 0 s) at constant flow of 100 μl/min to a level of 120 RU. The binding of the serum albumin to Protein #5 was measured by injecting human serum albumin (HSA), cynomolgus serum albumin (CSA) and mouse serum albumin (MSA) in a serial dilution of 100, 33, 11 and 3.7 nM with an association of 120 s and a dissociation of 600 s at a constant flow of 100 μl/min. HSA, CSA and MSA binding was measured serially and the hFAP/Protein #5 complex was regenerated each time with 10 mM glycine pH2 for 18 s at a flow of 100 μl/min. Thus, Protein #5 had to be re-immobilized on hFAP after each regeneration step. […] The kinetic was calculated on the first 300 s of dissociation.

Kd (human FAP (recombinant)): 307 pM | koff (human FAP (recombinant)): 0.000126 s⁻¹ | kon (human FAP (recombinant)): 409000 M⁻¹ s⁻¹ | Kd [2]: 103 pM | koff [2]: 0.00103 s⁻¹ | kon [2]: 1.01e+07 M⁻¹ s⁻¹ | Kd [3]: 101 pM | koff [3]: 0.000824 s⁻¹ | kon [3]: 8.25e+06 M⁻¹ s⁻¹ | Kd (mouse serum albumin): 40000 pM
B1: DARPin Protein #5 (designed binder)
chain: GSDLGKKLLEAARAGQDDEVRELLKAGADVNAKDYFSHTPLHLAARNGHLKIVEVLLKAGADVNAKDFAGKTPLHLAAADGHLEIVEVLLKAGADVNAQDIFGKTPADIAADAGHEDIAEVLQKAAGSPTPTPTTPTPTPTTPTPTPTGSDLGKKLLEAARAGQDDEVRILLAAGADVNAKDVLGWTPLHLAAFEGHLEIVEVLLKAGADVNAKDKKGWTPLQLAARTGHLEIVEVLLKAGADVNAKDHIGATPLHLAAWQGHPEIVEVLLKAGADVNAQDKSGKTPADLAADAGHEDIAEVLQKAAGSPTPTPTTPTPTPTTPTPTPTGSDLGKKLLQAARAGQLDEVRELLKAGADVNAKDTWGFTPLHIAAESGHLEIVEVLLKAGADVNAKDVQGRTPLHIAAHSGHLEIVEVLLKAGADVNAKDFRGWTPLHLAAWSGHLEIVEILLKAGADVNAQDKSGKTPADLAARAGHQDIAEVLQKAAGSPTPTPTTPTPTPTTPTPTPTGSDLGKKLLQAARAGQLDEVRELLKAGADVNAKDTWGFTPLHIAAESGHLEIVEVLLKAGADVNAKDVQGRTPLHIAAHSGHLEIVEVLLKAGADVNAKDFRGWTPLHLAAWSGHLEIVEILLKAGADVNAQDKSGKTPADLAARAGHQDIAEVLQKAA
notes: also called SMA136; Molecule No. 1
binding result [1]: no binding (tested: 3 nM (highest concentration injected))
